Reference: publication PMC4427845, “Redesigning Protein Cavities as a Strategy for Increasing Affinity in Protein-Protein Interaction: Interferon-γ Receptor 1 as a Model” (BioMed Research International, 2015)

Experiments:
Test in all cases: SPR; His-tagged receptor variants immobilised on a Ni2+-activated HTG sensor chip (ProteOn); IFNγSC 0.1-9 nM flowed over, 90 s association, 10 min dissociation, 100 μL/min; PBST (PBS pH 7.4, 0.005% Tween 20); doubly referenced (interspots and His-tagged FrpD channel); 1:1 Langmuir with drift model
Conditions in all cases: both partners purified
[1] = molecular target: T1, IFNγR1 N96W + V35L variant (residues 18-245) (human, UniProt P15260 18-245, V35L | N96W)
T1 construct: interferon-γ receptor 1 (IFNγR1), human, extracellular domain, residues 18-245 of UniProt P15260; not shown: His tag, C-terminal, kept
T1 sequence (looked up): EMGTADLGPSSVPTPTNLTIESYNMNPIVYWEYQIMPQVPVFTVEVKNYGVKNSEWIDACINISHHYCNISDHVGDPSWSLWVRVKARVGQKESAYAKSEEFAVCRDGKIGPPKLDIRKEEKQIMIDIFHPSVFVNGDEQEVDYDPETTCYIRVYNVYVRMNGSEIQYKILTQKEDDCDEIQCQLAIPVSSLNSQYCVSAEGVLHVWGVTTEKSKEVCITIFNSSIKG

[2] = molecular target: T2, IFNγR1 N96W + G225Y double mutant (residues 18-245) (human, UniProt P15260 18-245, N96W | G225Y)
T2 construct: interferon-γ receptor 1 (IFNγR1), human, extracellular domain, residues 18-245 of UniProt P15260; not shown: His tag, C-terminal, kept
T2 sequence (looked up): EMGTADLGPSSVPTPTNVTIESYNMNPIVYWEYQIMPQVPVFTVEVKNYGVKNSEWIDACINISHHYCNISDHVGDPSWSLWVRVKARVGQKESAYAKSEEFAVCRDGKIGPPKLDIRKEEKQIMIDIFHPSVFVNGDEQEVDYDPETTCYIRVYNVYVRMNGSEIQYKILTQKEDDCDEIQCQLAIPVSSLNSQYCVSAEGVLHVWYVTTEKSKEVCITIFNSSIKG

[3] = molecular target: T3, IFNγR1 G225Y variant (residues 18-245) (human, UniProt P15260 18-245, G225Y)
T3 construct: interferon-γ receptor 1 (IFNγR1), human, extracellular domain, residues 18-245 of UniProt P15260; No primers are printed for this mutation; the methods say one protocol was followed for all proteins of the study; not shown: His tag, C-terminal, kept
T3 sequence (looked up): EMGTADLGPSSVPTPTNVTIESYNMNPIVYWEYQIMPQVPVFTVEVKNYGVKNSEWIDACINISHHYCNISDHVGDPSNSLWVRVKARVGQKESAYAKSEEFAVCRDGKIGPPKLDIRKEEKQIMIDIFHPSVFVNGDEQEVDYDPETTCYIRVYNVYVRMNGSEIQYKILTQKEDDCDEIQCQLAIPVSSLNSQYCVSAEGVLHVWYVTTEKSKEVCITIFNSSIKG

fold of affinity against WT [1]: 7 fold | ratio of Kd values against WT [2]: 3.1 | ratio of Kd values against WT [3]: 0.4
B1: Recombinant interferon gamma in so-called single chain form (IFNγSC) (ligand)
chain: MQDPYVKEAENLKKYFNAGHSDVADNGTLFLGILKNWKEESDRKIMQSQIVSFYFKLFKNFKDDQSIQKSVETIKEDMNVKFFNSNKKKRDDFEKLTNYSVTDLNVQRKAIDELIQVMAEFSTEEQQEGPYVKEAENLKKYFNAGHSDVADNGTLFLGILKNWKEESDRKIMQSQIVSFYFKLFKNFKDDQSIQKSVETIKEDMNVKFFNSNKKKRDDFEKLTNYSVTDLNVQRKAIHELIQVMAELSPAAKTGKRKRSQMLFRG
